Reference: patent US20220380739

Assays:
Abz-VDVADAA-Dap (Dnp) = biological target: T1, Abz-VDVADAA-Dap (Dnp)
T1 chain: VDVADAA

Abz-VDVADDA-Dap (Dnp) = biological target: T2, Abz-VDVADDA-Dap (Dnp)
T2 chain: VDVADDA

Abz-VDVADEA-Dap (Dnp) = biological target: T3, Abz-VDVADEA-Dap (Dnp)
T3 chain: VDVADEA

Abz-VDVADFA-Dap (Dnp) = biological target: T4, Abz-VDVADFA-Dap (Dnp)
T4 chain: VDVADFA

Abz-VDVADGA-Dap (Dnp) = biological target: T5, Abz-VDVADGA-Dap (Dnp)
T5 chain: VDVADGA

Abz-VDVADHA-Dap (Dnp) = biological target: T6, Abz-VDVADHA-Dap (Dnp)
T6 chain: VDVADHA

Abz-VDVADIA-Dap (Dnp) = biological target: T7, Abz-VDVADIA-Dap (Dnp)
T7 chain: VDVADIA

Abz-VDVADKA-Dap (Dnp) = biological target: T8, Abz-VDVADKA-Dap (Dnp)
T8 chain: VDVADKA

Abz-VDVADLA-Dap (Dnp) = biological target: T9, Abz-VDVADLA-Dap (Dnp)
T9 chain: VDVADLA

Abz-VDVADMA-Dap (Dnp) = biological target: T10, Abz-VDVADMA-Dap (Dnp)
T10 chain: VDVADMA

Abz-VDVADNA-Dap (Dnp) = biological target: T11, Abz-VDVADNA-Dap (Dnp)
T11 chain: VDVADNA

Abz-VDVADPA-Dap (Dnp) = biological target: T12, Abz-VDVADPA-Dap (Dnp)
T12 chain: VDVADPA

Abz-VDVADQA-Dap (Dnp) = biological target: T13, Abz-VDVADQA-Dap (Dnp)
T13 chain: VDVADQA

Abz-VDVADRA-Dap (Dnp) = biological target: T14, Abz-VDVADRA-Dap (Dnp)
T14 chain: VDVADRA

Abz-VDVADSA-Dap (Dnp) = biological target: T15, Abz-VDVADSA-Dap (Dnp)
T15 chain: VDVADSA

Abz-VDVADTA-Dap (Dnp) = biological target: T16, Abz-VDVADTA-Dap (Dnp)
T16 chain: VDVADTA

Abz-VDVADVA-Dap (Dnp) = biological target: T17, Abz-VDVADVA-Dap (Dnp)
T17 chain: VDVADVA

Abz-VDVADWA-Dap (Dnp) = biological target: T18, Abz-VDVADWA-Dap (Dnp)
T18 chain: VDVADWA

Abz-VDVADYA-Dap (Dnp) = biological target: T19, Abz-VDVADYA-Dap (Dnp)
T19 chain: VDVADYA

Abz-VDVADCA-Dap (Dnp) = biological target: T20, Abz-VDVADCA-Dap (Dnp)
T20 chain: VDVADCA

Chain of 6H-GSG-VDVAD-TNFalpha (chain, as listed by the source): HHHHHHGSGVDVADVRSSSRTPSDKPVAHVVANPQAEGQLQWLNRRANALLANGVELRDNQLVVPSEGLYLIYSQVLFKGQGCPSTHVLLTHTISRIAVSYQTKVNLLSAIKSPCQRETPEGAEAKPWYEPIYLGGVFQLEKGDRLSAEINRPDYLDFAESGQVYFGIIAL

Protein	KM (Abz-VDVADAA-Dap (Dnp)) [µM]	KM (Abz-VDVADDA-Dap (Dnp)) [µM]	KM (Abz-VDVADEA-Dap (Dnp)) [µM]	KM (Abz-VDVADFA-Dap (Dnp)) [µM]	KM (Abz-VDVADGA-Dap (Dnp)) [µM]	KM (Abz-VDVADHA-Dap (Dnp)) [µM]	KM (Abz-VDVADIA-Dap (Dnp)) [µM]	KM (Abz-VDVADKA-Dap (Dnp)) [µM]	KM (Abz-VDVADLA-Dap (Dnp)) [µM]	KM (Abz-VDVADMA-Dap (Dnp)) [µM]	KM (Abz-VDVADNA-Dap (Dnp)) [µM]	KM (Abz-VDVADPA-Dap (Dnp)) [µM]	KM (Abz-VDVADQA-Dap (Dnp)) [µM]	KM (Abz-VDVADRA-Dap (Dnp)) [µM]	KM (Abz-VDVADSA-Dap (Dnp)) [µM]	KM (Abz-VDVADTA-Dap (Dnp)) [µM]	KM (Abz-VDVADVA-Dap (Dnp)) [µM]	KM (Abz-VDVADWA-Dap (Dnp)) [µM]	KM (Abz-VDVADYA-Dap (Dnp)) [µM]	KM (T7AC-6H-GSG-VDVAD-hFGF-2) [µM]	further results
6H_cpCasp2_S9_E105V (protein) MHHHHHHGKNHAGSPGCEESAAGKEKLPKMRLPTRSDMICGYACLKGTAAMRNTKRGSWYIEALAQVFSERACDMHVADMLVKVNALIKDREGYAPGTEFHRCKVMSEYCSTLCRHLYLFPGHPPTGSGPVCLQVKPCTPEFYQTHFQLAYRLQSRPRGLALVLSNVHFTGEKELEFRSGGDVDHSTLVTLFKLLGYDVHVLCDQTAQEMQEKLQNFAQLPAHRVTDSCIVALLSHGVEGAIYGVDGKLLQLQEVFQLFDNANCPSLQNKPKMFFIQACRGDETDRGVDQQD	110	200	180	77	57	160	70	97	300	830	100	250	130	48	200	150	81	51	340		
6H_cpCasp2_G171D (protein) MHHHHHHGKNHAGSPGCEESAAGKEKLPKMRLPTRSDMICGYACLKGTAAMRNTKRGSWYIEALAQVFSERACDMHVADMLVKVNALIKDREGYAPGTEFHRCKEMSEYCSTLCRHLYLFPGHPPTGSGPVCLQVKPCTPEFYQTHFQLAYRLQSRPRGLALVLSNVHFTDEKELEFRSGGDVDHSTLVTLFKLLGYDVHVLCDQTAQEMQEKLQNFAQLPAHRVTDSCIVALLSHGVEGAIYGVDGKLLQLQEVFQLFDNANCPSLQNKPKMFFIQACRGDETDRGVDQQD	120	150	210	86	75	170	78	94	300	610	110	390	160	65	220	140	96	56	350		
cp caspase-2 (6H_cpCasp2D) (protein) MHHHHHHGKNHAGSPGCEESAAGKEKLPKMRLPTRSDMICGYACLKGTAAMRNTKRGSWYIEALAQVFSERACDMHVADMLVKVNALIKDREGYAPGTEFHRCKEMSEYCSTLCRHLYLFPGHPPTGSGPVCLQVKPCTPEFYQTHFQLAYRLQSRPRGLALVLSNVHFTGEKELEFRSGGDVDHSTLVTLFKLLGYDVHVLCDQTAQEMQEKLQNFAQLPAHRVTDSCIVALLSHGVEGAIYGVDGKLLQLQEVFQLFDNANCPSLQNKPKMFFIQACRGDETDRGVDQQD	89	160	170	60	110	120	71	120	290	380	78	300	120	58	200	75	64	46	340	639	KM (Abz-VDVADCA-Dap (Dnp)): 38 µM; cleavage of DEVD-E2 compared with VDVAD-E2 (DEVD-E2): processed 140 times slower than VDVAD-E2
T7AC-6H-cpCasp2_sar (protein) MLEDPERNKERKEAELQAQTAEQHHHHHHGKEHMASPGCEQSAAGKEKILKMRLPTRSDMICGYACLKGTAAMRNTKRGSWYIEALTQVFSERARDMHVADMLVKVNALIKDREGYAPGTEFHRCKEMSEYSSTLCRHLYLFPGHPPTGSGPPSLQVKPCTSEFYRTHHHLAYRLQSRPRGLALVLSNVHFNGEKDLEFRSGGDVDHSSLVTLFKLLDYDVHVLRDQTAQEMYEKLQRFAQLSTHQNTDSCVVALLSHGIEGGIYGVDGQLLQLQEVFQLFDNANCPNLQNKPKMFFIQACRGDETDRGVDLRD				44	48								94				34				
T7AC-6H-cpCasp2_sar_E105V, E172V (protein) MLEDPERNKERKEAELQAQTAEQHHHHHHGKEHMASPGCEQSAAGKEKILKMRLPTRSDMICGYACLKGTAAMRNTKRGSWYIEALTQVFSERARDMHVADMLVKVNALIKDREGYAPGTEFHRCKVMSEYSSTLCRHLYLFPGHPPTGSGPPSLQVKPCTSEFYRTHHHLAYRLQSRPRGLALVLSNVHFNGVKDLEFRSGGDVDHSSLVTLFKLLDYDVHVLRDQTAQEMYEKLQRFAQLSTHQNTDSCVVALLSHGIEGGIYGVDGQLLQLQEVFQLFDNANCPNLQNKPKMFFIQACRGDETDRGVDLRD				52	31								120				69				
T7AC_6H_mS9ProE (protein) MLEDPERNKERKEAELQAQTAEQHHHHHHGKNHAGSPGCEESAAGKEKLPKMRLPTRSDMICGYACLKGTAAMRNTKRGSWYIEALAQVFSERACDMHVADMLVKVNALIKDREGYAPGTEFHRCKVMSEYCSTLCRHLYLFPGHPPTGSGPVCLQVKPCTPEFYQTHFQLAYRLQSRPRGLALVLSNVHFTDEKELEFRSGGDVDHSTLVTLFKLLGYDVHVLCDQTAQEMQEKLQNFAQLPAHRGTDSCIVALLSHGVEGAIYGVDGKLLQLQEVFQLFDNANCPSLQNKPKMFFIQACRGEETERGVDQQD	110	150	110	80	43	160	130	92	410	370	120	120	120	68	120	100	90	56	420	298	KM (6H-GSG-VDVAD-TNFalpha): 520 µM
T7AC_6H_cpCasp2D (protein) MLEDPERNKERKEAELQAQTAEQHHHHHHGKNHAGSPGCEESAAGKEKLPKMRLPTRSDMICGYACLKGTAAMRNTKRGSWYIEALAQVFSERACDMHVADMLVKVNALIKDREGYAPGTEFHRCKEMSEYCSTLCRHLYLFPGHPPTGSGPVCLQVKPCTPEFYQTHFQLAYRLQSRPRGLALVLSNVHFTGEKELEFRSGGDVDHSTLVTLFKLLGYDVHVLCDQTAQEMQEKLQNFAQLPAHRVTDSCIVALLSHGVEGAIYGVDGKLLQLQEVFQLFDNANCPSLQNKPKMFFIQACRGDETDRGVDQQD	120	180	200			110	62	110	160	340	87	150		56	130	89		36	300	881	KM (6H-GSG-VDVAD-TNFalpha): 280 µM
Caspase-2 (human), recombinant, active, Enzo Life Sciences (protein) GPVCLQVKPCTPEFYQTHFQLAYRLQSRPRGLALVLSNVHFTGEKELEFRSGGDVDHSTLVTLFKLLGYDVHVLCDQTAQEMQEKLQNFAQLPAHRVTDSCIVALLSHGVEGAIYGVDGKLLQLQEVFQLFDNANCPSLQNKPKMFFIQACRGDETDRGVDQQDGKNHAGSPGCEESDAGKEKLPKMRLPTRSDMICGYACLKGTAAMRNTKRGSWYIEALAQVFSERACDMHVADMLVKVNALIKDREGYAPGTEFHRCKEMSEYCSTLCRHLYLFPGHPPT																					cleavage of DEVD-E2 compared with VDVAD-E2 (DEVD-E2): cleaved DEVD-E2 only 44 times slower than VDVAD-E2
wt caspase-2 (human, produced in E. coli with poly-his-tag) (protein) GPVCLQVKPCTPEFYQTHFQLAYRLQSRPRGLALVLSNVHFTGEKELEFRSGGDVDHSTLVTLFKLLGYDVHVLCDQTAQEMQEKLQNFAQLPAHRVTDSCIVALLSHGVEGAIYGVDGKLLQLQEVFQLFDNANCPSLQNKPKMFFIQACRGDETDRGVDQQDGKNHAGSPGCEESDAGKEKLPKMRLPTRSDMICGYACLKGTAAMRNTKRGSWYIEALAQVFSERACDMHVADMLVKVNALIKDREGYAPGTEFHRCKEMSEYCSTLCRHLYLFPGHPPTHHHHHH				79	97								110				86				
